± gives the standard deviation of the averaged measurements.
System: ATP
Assay: switch fluorescence ratio, 500 uM ATP over buffer (Cy3 cluster intensity, sum of 5 cycles each) (fold (ratio)); higher = stronger signal-on switching upon ATP binding; sequences stand for … in TCGTCGGCAGCGTCAGATGTGTATAAGAGACAGTTTTTTTTTTTTTTTTTTTTTTTTT…TC
Conditions: aptamer strand: ATP DNA aptamer (quencher-CACCTGGGGGAGTATTGCGGAGGAAGG + anchor), 100 nM annealed; ATP concentration: 500 uM
Procedure, shortened: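 Cy3-labelled switching-strand clusters on a modified Illumina MiSeq flow-cell were annealed to 100 nM quencher-labelled ATP aptamer, imaged in selection buffer, then imaged after 15 min with 500 uM ATP at 22 °C. Five buffer/ATP cycles ran, with NaOH stripping and re-annealing between them. The fluorescence ratio is summed target-cycle over summed buffer-cycle Cy3 intensity per cluster, averaged per switch-domain sequence. Clusters outside 100-1000 RFU were excluded.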
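Also: ATP exposure 15 min at 22 °C before imaging.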

For TGGTTAGCG, the switch fluorescence ratio was 1.04 ± 0.024.
For TGGTTAGGGA, the switch fluorescence ratio was 1.01 ± 0.026.
With TGGTTAGGTT the switch fluorescence ratio was 0.966 ± 0.013.
For TGGTTAGTTG, the switch fluorescence ratio was 0.994 ± 0.013.
TGGTTCAGGG gave a switch fluorescence ratio of 0.997 ± 0.04.
TGGTTCAGGT was tested, and the switch fluorescence ratio was 1.02 ± 0.022.
With TGGTTCAGTG the switch fluorescence ratio was 0.993 ± 0.048.
Work on TGGTTCCCTT yielded a switch fluorescence ratio of 1.02 ± 0.07.
Work on TGGTTCCGGG yielded a switch fluorescence ratio of 1.01 ± 0.02.
Work on TGGTTGAAT yielded a switch fluorescence ratio of 1.01 ± 0.049.
With TGGTTGAGTT the switch fluorescence ratio was 0.973 ± 0.021.
For TGGTTGTAAG, the switch fluorescence ratio was 1.03 ± 0.024.
TGGTTGTGAG gave a switch fluorescence ratio of 1 ± 0.0065.
For TGGTTGTTGC, the switch fluorescence ratio was 0.998 ± 0.043.
Work on TGGTTGTTGT yielded a switch fluorescence ratio of 0.96 ± 0.014.
TGGTTTAACG was tested, and the switch fluorescence ratio was 0.99243 ± 0.00051.
For TGGTTTCCGT, the switch fluorescence ratio was 0.991 ± 0.027.
For TGGTTTGAGG, the switch fluorescence ratio was 0.989 ± 0.035.
Work on TGGTTTTAAG yielded a switch fluorescence ratio of 0.98 ± 0.024.
TGGTTTTACG gave a switch fluorescence ratio of 1.019 ± 0.01.
TGGTTTTATT showed a switch fluorescence ratio of 1.01 ± 0.043.
TGGTTTTGGA was tested, and the switch fluorescence ratio was 0.976 ± 0.056.
Sequence TGGTTTTTGT has a switch fluorescence ratio of 1.1 ± 0.2.
Work on TGGTTTTTTG yielded a switch fluorescence ratio of 0.996 ± 0.017.
TGTAAACGGG was tested, and the switch fluorescence ratio was 1.09 ± 0.12.
For TGTAAATAAG, the switch fluorescence ratio was 0.991 ± 0.043.
In the case of TGTAACCCAT, the switch fluorescence ratio is reported as 1.02 ± 0.061.
With TGTAACGAAA the switch fluorescence ratio was 1.008 ± 0.0027.
TGTAACGGGG gave a switch fluorescence ratio of 1.03 ± 0.032.
In the case of TGTAAGACCC, the switch fluorescence ratio is reported as 1.06 ± 0.033.
For TGTAAGAGTG, the switch fluorescence ratio was 0.983 ± 0.021.
For TGTAATACGT, the switch fluorescence ratio was 1.17 ± 0.019.
TGTAATCCGG gave a switch fluorescence ratio of 0.986 ± 0.012.
With TGTAATCTAC the switch fluorescence ratio was 1.06 ± 0.057.
With TGTAATGGTT the switch fluorescence ratio was 1.004 ± 0.01.
With TGTACGGGGA the switch fluorescence ratio was 0.995 ± 0.03.
For TGTAGAGGTG, the switch fluorescence ratio was 1.09 ± 0.022.
Sequence TGTAGCAGCT has a switch fluorescence ratio of 1.12 ± 0.045.
TGTAGCTTGT gave a switch fluorescence ratio of 1.09 ± 0.075.
In the case of TGTAGGGGAA, the switch fluorescence ratio is reported as 0.996 ± 0.011.
In the case of TGTAGGGGGC, the switch fluorescence ratio is reported as 1.27 ± 0.39.
TGTAGGGTTC gave a switch fluorescence ratio of 1.12 ± 0.19.
In the case of TGTAGTAGCG, the switch fluorescence ratio is reported as 0.9901 ± 0.0064.
For TGTAGTTGTG, the switch fluorescence ratio was 1.02 ± 0.061.
TGTAGTTTAG gave a switch fluorescence ratio of 1.01 ± 0.032.
TGTAGTTTGT was tested, and the switch fluorescence ratio was 0.973 ± 0.034.
TGTATGGTTT was tested, and the switch fluorescence ratio was 0.971 ± 0.048.
TGTATGTCGG was tested, and the switch fluorescence ratio was 0.959 ± 0.03.
TGTATTCAAT gave a switch fluorescence ratio of 0.986 ± 0.013.
TGTATTCAGG showed a switch fluorescence ratio of 1.01 ± 0.056.
TGTATTTTT gave a switch fluorescence ratio of 0.98586 ± 0.00097.
With TGTCACTGTG the switch fluorescence ratio was 0.979 ± 0.049.
For TGTCAGGGCC, the switch fluorescence ratio was 1.04 ± 0.053.
Sequence TGTCAGTGCT has a switch fluorescence ratio of 1.015 ± 0.0066.
TGTCAGTTTC gave a switch fluorescence ratio of 0.987 ± 0.018.
Sequence TGTCCAGCTC has a switch fluorescence ratio of 1.49 ± 0.65.
TGTCCCTCTT showed a switch fluorescence ratio of 1.02 ± 0.053.
TGTCCGGGGG gave a switch fluorescence ratio of 0.994 ± 0.029.
In the case of TGTCGGGATT, the switch fluorescence ratio is reported as 1.03 ± 0.053.
With TGTCGGGGGT the switch fluorescence ratio was 1.22 ± 0.18.
For TGTCGTTATT, the switch fluorescence ratio was 0.9546 ± 0.0018.
TGTCTATTTT showed a switch fluorescence ratio of 1.019 ± 0.0033.
TGTCTGGGGG showed a switch fluorescence ratio of 1.01 ± 0.025.
Sequence TGTCTTTATT has a switch fluorescence ratio of 0.988 ± 0.016.
TGTGAAGTTT was tested, and the switch fluorescence ratio was 0.9595 ± 0.0076.
Sequence TGTGAGAGGG has a switch fluorescence ratio of 1 ± 0.019.
Work on TGTGAGAGTT yielded a switch fluorescence ratio of 0.9826 ± 0.0098.
With TGTGAGCAGG the switch fluorescence ratio was 1.15 ± 0.044.
Sequence TGTGAGCCTG has a switch fluorescence ratio of 0.98 ± 0.092.
For TGTGAGCTGT, the switch fluorescence ratio was 1.0077 ± 0.00016.
For TGTGAGGCGG, the switch fluorescence ratio was 1.04 ± 0.11.
In the case of TGTGAGGGGT, the switch fluorescence ratio is reported as 0.994 ± 0.033.
In the case of TGTGAGGTGT, the switch fluorescence ratio is reported as 1.02 ± 0.062.
For TGTGAGTAGG, the switch fluorescence ratio was 1.02 ± 0.017.
With TGTGAGTGTG the switch fluorescence ratio was 0.983 ± 0.015.
TGTGATAGAG was tested, and the switch fluorescence ratio was 0.989 ± 0.029.
TGTGATGAGT was tested, and the switch fluorescence ratio was 0.992 ± 0.024.
TGTGATGGTT was tested, and the switch fluorescence ratio was 1.005 ± 0.0013.
With TGTGATTTAA the switch fluorescence ratio was 1.002 ± 0.0028.
TGTGATTTAT gave a switch fluorescence ratio of 1.0046 ± 0.00072.
For TGTGATTTGA, the switch fluorescence ratio was 0.9763 ± 0.0026.
TGTGCAATGT gave a switch fluorescence ratio of 1.3 ± 0.029.
For TGTGCCCCTT, the switch fluorescence ratio was 0.991 ± 0.042.
Work on TGTGCTCGGA yielded a switch fluorescence ratio of 1.04 ± 0.1.
Work on TGTGCTGGGT yielded a switch fluorescence ratio of 1.02 ± 0.024.
Work on TGTGGAAGGT yielded a switch fluorescence ratio of 0.9999 ± 0.0078.
In the case of TGTGGCAAGA, the switch fluorescence ratio is reported as 1.14 ± 0.14.
With TGTGGCGGGA the switch fluorescence ratio was 1.06 ± 0.13.
With TGTGGCTCTG the switch fluorescence ratio was 0.9571 ± 0.0087.
Work on TGTGGGATAC yielded a switch fluorescence ratio of 1.2 ± 0.015.
Work on TGTGGGCGC yielded a switch fluorescence ratio of 1.01 ± 0.098.
TGTGGGGACC gave a switch fluorescence ratio of 1.05 ± 0.05.
In the case of TGTGGGGAGG, the switch fluorescence ratio is reported as 0.969 ± 0.027.
In the case of TGTGGGGCAA, the switch fluorescence ratio is reported as 1.05 ± 0.019.
For TGTGGGGGAT, the switch fluorescence ratio was 1.01 ± 0.06.
TGTGGGGTAG was tested, and the switch fluorescence ratio was 1.01 ± 0.029.
For TGTGGGTGAG, the switch fluorescence ratio was 1 ± 0.02.
TGTGGTAGAA gave a switch fluorescence ratio of 0.989 ± 0.023.
In the case of TGTGGTATTA, the switch fluorescence ratio is reported as 0.976 ± 0.036.
In the case of TGTGGTATTT, the switch fluorescence ratio is reported as 0.972 ± 0.027.

From the supplement of paper PMC10126150
